Measurements reported in patent US20140271457A1 (AbbVie / Abbott, published 2014).
Where a chain is given by its changes, count along the chain named. Blank lines part the entries; values can stand above or below the binder they belong to.

Target: Recombinant Human IL-13 (human, UniProt P35225 35-146, limits assumed)
Test: cell-based or functional assay

Chain of Recombinant Human IL-13 (P35225 35-146 limits assumed): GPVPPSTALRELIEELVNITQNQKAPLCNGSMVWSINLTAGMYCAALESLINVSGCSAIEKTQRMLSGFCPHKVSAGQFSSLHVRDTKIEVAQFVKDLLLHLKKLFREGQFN

IL-13 Neutralization Assay IC50: 0.067 nM
B4: DVD3093 (bispecific antibody)
heavy: not shown
light: DIQMTQSPSSLSASVGDRVTITCKASQLVSSAVAWYQQKPGKAPKLLIYWASTLHTGVPSRFSGSGSGTDFTLTISSLQPEDFATYYCQQHYRTPFTFGQGTKLEIKRGGSGGGGSGDVVMTQSPLSLPVTLGQPASISCRSSQSLVHSHGNTYLHWYQQRPGQSPRLLIYTVSNRFSGVPDRFSGSGSGTDFTLKISRVEAEDVGVYYCSQSTHVPYTFGGGTKVEIKRTVAAPSVFIFPPSDEQLKSGTASVVCLLNNFYPREAKVQWKVDNALQSGNSQESVTEQDSKDSTYSLSSTLTLSKADYEKHKVYACEVTHQGLSSPVTKSFNRGEC

IL-13 Neutralization Assay IC50: 0.056 nM
B5: DVD3091 (bispecific antibody, human IgG1, kappa)
heavy: not shown
light: DVVMTQSPLSLPVTLGQPASISCRSSQSLVHSHGNTYLHWYQQRPGQSPRLLIYTVSNRFSGVPDRFSGSGSGTDFTLKISRVEAEDVGVYYCSQSTHVPYTFGGGTKVEIKRTVAAPSVFIFPPDIQMTQSPSSLSASVGDRVTITCRASQLVSSAVAWYQQKPGKAPKLLIYWASARHTGVPSRFSGSGSGTDFTLTISSLQPEDFATYYCQQHYKTPFTFGQGTKLEIKRTVAAPSVFIFPPSDEQLKSGTASVVCLLNNFYPREAKVQWKVDNALQSGNSQESVTEQDSKDSTYSLSSTLTLSKADYEKHKVYACEVTHQGLSSPVTKSFNRGEC

IL-13 Neutralization Assay IC50: 0.444 nM
B11: DVD3094 (bispecific antibody)
heavy: not shown
light: DIQMTQSPSSLSASVGDRVTITCKASQLVSSAVAWYQQKPGKAPKLLIYWASTLHTGVPSRFSGSGSGTDFTLTISSLQPEDFATYYCQQHYRTPFTFGQGTKLEIKRTVAAPDVVMTQSPLSLPVTLGQPASISCRSSQSLVHSHGNTYLHWYQQRPGQSPRLLIYTVSNRFSGVPDRFSGSGSGTDFTLKISRVEAEDVGVYYCSQSTHVPYTFGGGTKVEIKRTVAAPSVFIFPPSDEQLKSGTASVVCLLNNFYPREAKVQWKVDNALQSGNSQESVTEQDSKDSTYSLSSTLTLSKADYEKHKVYACEVTHQGLSSPVTKSFNRGEC

IL-13 Neutralization Assay IC50: 0.072 nM
B12: DVD3097 (bispecific antibody)
heavy: not shown
light: B11 light

IL-13 Neutralization Assay IC50: 0.103 nM
B13: DVD3088 (bispecific antibody, human IgG1, kappa)
heavy: not shown
light: DVVMTQSPLSLPVTLGQPASISCRSSQSLVHSHGNTYLHWYQQRPGQSPRLLIYTVSNRFSGVPDRFSGSGSGTDFTLKISRVEAEDVGVYYCSQSTHVPYTFGGGTKVEIKRGGSGGGGSGDIQMTQSPSSLSASVGDRVTITCRASQLVSSAVAWYQQKPGKAPKLLIYWASARHTGVPSRFSGSGSGTDFTLTISSLQPEDFATYYCQQHYKTPFTFGQGTKLEIKRTVAAPSVFIFPPSDEQLKSGTASVVCLLNNFYPREAKVQWKVDNALQSGNSQESVTEQDSKDSTYSLSSTLTLSKADYEKHKVYACEVTHQGLSSPVTKSFNRGEC

IL-13 Neutralization Assay IC50: 0.059 nM
B14: DVD3098 (bispecific antibody, human IgG1, kappa)
heavy: not shown
light: B13 light with R146K, A175T, R176L, K215R

IL-13 Neutralization Assay IC50: 0.074 nM
B15: DVD3089 (bispecific antibody, human IgG1, kappa)
heavy: not shown
light: DVVMTQSPLSLPVTLGQPASISCRSSQSLVHSHGNTYLHWYQQRPGQSPRLLIYTVSNRFSGVPDRFSGSGSGTDFTLKISRVEAEDVGVYYCSQSTHVPYTFGGGTKVEIKRTVAAPDIQMTQSPSSLSASVGDRVTITCRASQLVSSAVAWYQQKPGKAPKLLIYWASARHTGVPSRFSGSGSGTDFTLTISSLQPEDFATYYCQQHYKTPFTFGQGTKLEIKRTVAAPSVFIFPPSDEQLKSGTASVVCLLNNFYPREAKVQWKVDNALQSGNSQESVTEQDSKDSTYSLSSTLTLSKADYEKHKVYACEVTHQGLSSPVTKSFNRGEC

IL-13 Neutralization Assay IC50: 0.06 nM
B16: DVD3092 (bispecific antibody, human IgG1, kappa)
heavy: not shown
light: B15 light

IL-13 Neutralization Assay IC50: 0.064 nM
B19: DVD3096 (bispecific antibody)
heavy: not shown
light: DIQMTQSPSSLSASVGDRVTITCKASQLVSSAVAWYQQKPGKAPKLLIYWASTLHTGVPSRFSGSGSGTDFTLTISSLQPEDFATYYCQQHYRTPFTFGQGTKLEIKRTVAAPSVFIFPPDVVMTQSPLSLPVTLGQPASISCRSSQSLVHSHGNTYLHWYQQRPGQSPRLLIYTVSNRFSGVPDRFSGSGSGTDFTLKISRVEAEDVGVYYCSQSTHVPYTFGGGTKVEIKRTVAAPSVFIFPPSDEQLKSGTASVVCLLNNFYPREAKVQWKVDNALQSGNSQESVTEQDSKDSTYSLSSTLTLSKADYEKHKVYACEVTHQGLSSPVTKSFNRGEC

Second part, the binder before the results:

B1: DVD3013 (bispecific antibody, human IgG1, kappa)
heavy: not shown
light: DIQMTQSPSSLSASVGDRVTISCRASQDIRNYLNWYQQKPGKAPKLLIFYTSKLHSGVPSRFSGSGSGTDYTLTISSLQPEDIATYYCQQGLTPPLTFGGGTKVEIKRGGSGGGGSGDIQMTQSPSSLSASVGDRVTITCRASQDIENYLNWYQQKPGKAPKLLIYYTSRLQSGVPSRFSGSGSGTDFTLTISSLQPEDFATYFCQQGNTQPPTFGQGTKLEIKRTVAAPSVFIFPPSDEQLKSGTASVVCLLNNFYPREAKVQWKVDNALQSGNSQESVTEQDSKDSTYSLSSTLTLSKADYEKHKVYACEVTHQGLSSPVTKSFNRGEC
IL-13 Neutralization Assay IC50: 0.077 nM

B2: DVD3016 (bispecific antibody, human IgG1, kappa)
heavy: not shown
light: DIQMTQSPSSLSASVGDRVTISCRASQDIRNYLNWYQQKPGKAPKLLIFYTSKLHSGVPSRFSGSGSGTDYTLTISSLQPEDIATYYCQQGLTPPLTFGGGTKVEIKRTVAAPSVFIFPPDIQMTQSPSSLSASVGDRVTITCRASQDIENYLNWYQQKPGKAPKLLIYYTSRLQSGVPSRFSGSGSGTDFTLTISSLQPEDFATYFCQQGNTQPPTFGQGTKLEIKRTVAAPSVFIFPPSDEQLKSGTASVVCLLNNFYPREAKVQWKVDNALQSGNSQESVTEQDSKDSTYSLSSTLTLSKADYEKHKVYACEVTHQGLSSPVTKSFNRGEC
IL-13 Neutralization Assay IC50: 0.081 nM

B3: DVD3083 (bispecific antibody, human IgG1, kappa)
heavy: not shown
light: B4 light with K24R, T53A, L54R, R93K
IL-13 Neutralization Assay IC50: 0.098 nM

B6: DVD2792 (bispecific antibody, human IgG1, kappa)
heavy: not shown
light: DIQMTQSPSSLSASVGDRVTISCRASQDIRNYLNWYQQKPGKAPKLLIFYTSKLHSGVPSRFSGSGSGTDYTLTISSLQPEDIATYYCQQGLTPPLTFGGGTKVEIKRTVAAPDIQMTQSPSSLSASVGDRVTITCRASQDISQYLNWYQQKPGKAPKLLIYYTSRLQSGVPSRFSGSGSGTDFTLTISSLQPEDFATYFCQQGNTWPPTFGQGTKLEIKRTVAAPSVFIFPPSDEQLKSGTASVVCLLNNFYPREAKVQWKVDNALQSGNSQESVTEQDSKDSTYSLSSTLTLSKADYEKHKVYACEVTHQGLSSPVTKSFNRGEC
IL-13 Neutralization Assay IC50: 0.361 nM

B7: DVD3017 (bispecific antibody, human IgG1, kappa)
heavy: not shown
light: B6 light with S143E, Q144N, W207Q
IL-13 Neutralization Assay IC50: 0.111 nM

B8: DVD3014 (bispecific antibody, human IgG1, kappa)
heavy: not shown
light: B6 light with S143E, Q144N, W207Q
IL-13 Neutralization Assay IC50: 0.132 nM

B9: DVD3084 (bispecific antibody, human IgG1, kappa)
heavy: not shown
light: B11 light with K24R, T53A, L54R, R93K
IL-13 Neutralization Assay IC50: 0.587 nM

B10: DVD3087 (bispecific antibody, human IgG1, kappa)
heavy: not shown
light: B11 light with K24R, T53A, L54R, R93K
IL-13 Neutralization Assay IC50: 0.082 nM

B17: AB399 (antibody, V domains shown)
VH: EVQLVQSGAEVKKPGASVKVSCKASGYTFTSYWMHWVRQAPGQGLEWIGNINPKGGSNIYNEKFQGRVTMTRDTSISTAYMELSRLRSDDTAVYYCARLDYFGDSFDLWGQGTTVTVSS
VL: DIQMTQSPSSLSASVGDRVTITCRASQGIRNYLNWYQQKPGKAPKLLIYYASNLEVGVPSRFSGSGSGTDYTLTISSLQPEDFATYYCQQDNRFPYTFGGGTKVEIKR
IL-13 Neutralization Assay IC50: 0.075 nM

B18: DVD3086 (bispecific antibody, human IgG1, kappa)
heavy: not shown
light: B19 light with K24R, T53A, L54R, R93K
IL-13 Neutralization Assay IC50: 0.12 nM
